Here are results for two molecules from patent US20260166185A1 (Y MABS THERAPEUTICS, published 2026).

A value given as a limit tells only on which side of the number the result lay.

The target of experiment [1] is T1, CD276 on HEK293T cells (UniProt Q5ZPR3 29-534, limits assumed).
T1 construct: whole, on cells
T1 sequence (looked up): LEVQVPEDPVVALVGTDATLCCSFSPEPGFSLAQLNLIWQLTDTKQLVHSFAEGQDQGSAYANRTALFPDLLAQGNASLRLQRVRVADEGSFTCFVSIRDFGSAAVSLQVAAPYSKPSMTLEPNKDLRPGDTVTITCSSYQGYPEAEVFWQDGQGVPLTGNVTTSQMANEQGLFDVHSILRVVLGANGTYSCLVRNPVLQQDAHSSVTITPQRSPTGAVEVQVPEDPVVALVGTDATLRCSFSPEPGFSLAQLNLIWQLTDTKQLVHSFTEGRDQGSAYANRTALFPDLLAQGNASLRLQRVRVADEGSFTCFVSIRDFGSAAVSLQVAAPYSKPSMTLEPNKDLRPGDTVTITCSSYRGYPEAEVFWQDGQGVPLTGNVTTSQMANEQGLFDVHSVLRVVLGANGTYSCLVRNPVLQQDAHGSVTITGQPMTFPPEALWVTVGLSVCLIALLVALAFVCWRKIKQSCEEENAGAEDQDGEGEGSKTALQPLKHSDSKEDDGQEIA
Description: titration binding FACS on HEK293T cells. As to the method:
(§1) Subsequently the EC50 of antibodies samples was determined by titration binding FACS on Daudi cells (for CD38 binding evaluation), on THP-1 cells (for CD33 binding evaluation), on A-431 cells (for EGFR binding evaluation), on MKN-45 cells (for CEACAMS binding evaluation) and on HEK293T (for CD276 binding evaluation). Jurkat E6-1 or HEK293T cell lines were used as negative control, as applicable.

Experiment [2] has as its target T2, bio-huCD276 (human (hu), UniProt Q5ZPR3 29-461, limits assumed, biotinylated (bio-), site not stated).
T2 construct: also called B7-H3
T2 sequence (looked up): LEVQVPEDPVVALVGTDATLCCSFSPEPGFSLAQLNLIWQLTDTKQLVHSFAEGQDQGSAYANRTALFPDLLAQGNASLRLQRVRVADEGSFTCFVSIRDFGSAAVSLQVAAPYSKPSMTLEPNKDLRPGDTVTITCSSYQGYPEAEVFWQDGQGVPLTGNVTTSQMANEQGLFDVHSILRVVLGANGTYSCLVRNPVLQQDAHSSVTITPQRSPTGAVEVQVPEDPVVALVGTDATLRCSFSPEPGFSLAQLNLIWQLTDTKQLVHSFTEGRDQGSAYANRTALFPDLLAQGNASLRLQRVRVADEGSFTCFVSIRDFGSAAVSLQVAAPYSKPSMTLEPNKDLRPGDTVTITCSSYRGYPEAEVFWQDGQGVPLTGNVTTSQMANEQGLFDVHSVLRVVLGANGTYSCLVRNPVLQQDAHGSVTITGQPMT
In words: SPR, antibody captured on chip, antigen as analyte 400-12.5 nM. As to the method: (§2) SPR analysis was performed on a Biocore 8K+, using a CFJB0944 CM5 sensor chip for immobilization and a SPR running buffer 1×HBS-EP+pH 7.4 (Cytiva, cat no. BR100669) according to the manufacturer's instructions.
(§3) In the first part of this example the antibody was immobilized on the chip and the antigen dissolved in the SPR running buffer flowed over the chip.
(Surface plasmon resonance follows binding to a sensor surface in real time, without labels.)

The target of experiment [3] is T2, bio-huCD276. Description: SPR, antigen immobilized, antibody as analyte 25-1.6 nM. As to the method:
as §2
(§4) In the second part of this example, antigen was immobilized on the chip and antibody dissolved in the SPR running buffer flowed over the chip.

The target in experiment [4] is T3, bio-huCD38 (human (hu), UniProt P28907 43-300, biotinylated (bio-), site not stated). In words: SPR, antigen immobilized, antibody as analyte 25-1.6 nM; at the instrument's limit.
In experiment [5] the target is T4, CD38 on Daudi cells (UniProt P28907 1-300, limits assumed).
T4 construct: whole, on cells
In words: titration binding FACS on Daudi cells. As to the method: as §1

The target of experiment [6] is T3, bio-huCD38. Description: SPR, antibody captured on chip, antigen as analyte 200-6.25 nM. As to the method: as §2, §3
Experiment [7] deals with T3, bio-huCD38. Description: SPR, antigen immobilized, antibody as analyte 25-1.6 nM; estimated from ka and the limit kd. As to the method:
as §2, §4

Experiment [8] concerns the target T3, bio-huCD38. In words: SPR, antigen immobilized, antibody as analyte 25-1.6 nM. As to the method:
as §2, §4

The term EC50 denotes the concentration at which the effect is half-maximal. Read a low EC50 as higher potency in that assay. The Kd is the concentration at which binding is half-saturated. Broadly, the koff is the first-order rate constant of dissociation. A lower koff goes with slow dissociation. The term kon denotes the rate constant with which the complex forms.

B1: CD276-DOTA(fab)-p53 (bispecific antibody)
light: DVQLVESGGGLVQPGGSLRLSCAASGFTFSRYWMGWFRQAPGKGVEWVSTINSGGGSTYYADSVKGRFTISRDNAKNTLYLQLNNLKTEDTAMYYCAKEQWRTGSRGQGTQVTVSSSGGGGSGGGGSGGGGSGGGGSQAVVIQESALTTPPGETVTLTCGSSTGAVTASNYANWVQEKPDHLFTGLIGGHNNRPPGVPARFSGSLIGDKAALTIAGTQTEDEAIYFCALWYSDHWVIGGGTRLTVLGQPKANPTVTLFPPSSEELQANKATLVCLISDFYPGAVTVAWKADGSPVKAGVETTKPSKQSNNKYAASSYLSLTPEQWKSHRSYSCQVTHEGSTVEKTVAPTECS
heavy: HVKLQESGPGLVQPSQSLSLTCTVSGFSLTDYGVHWVRQSPGKGLEWLGVIWSGGGTAYNTALISRLNIYRDNSKNQVFLEMNSLQAEDTAMYYCARRGSYPYNYFDAWGRGTTVTVSSASTKGPSVFPLAPSSKSTSGGTAALGCLVKDYFPEPVTVSWNSGALTSGVHTFPAVLQSSGLYSLSSVVTVPSSSLGTQTYICNVNHKPSNTKVDKKVEPKSCGGGGSGGGGSKPLDGEYFTLQIRGRERFEMFRELNEALELKDAQAGKEPGGS
notes: Tetramerizes through p53 depending on concentration; also called YM00012; molecule 11
The molecule B1 returned a concentration giving a half-maximal response (EC50) in experiment [1] of 2.14 nM. In experiment [2], this molecule registered a Kd of 40.1 nM, a koff of 0.00456 s⁻¹ and a kon of 114000 M⁻¹ s⁻¹. For the same molecule, in experiment [3], binding was put at a Kd of 2.5 nM, the koff amounted to 2.26e-05 s⁻¹ and the kon came out at 9050 M⁻¹ s⁻¹.

B2: CD38 (Bivalent)-DOTA(Fab)-dp53 (bispecific antibody)
light: DVQLQESGGGLVQAGGSLRLSCTGSGRTFRNYPMAWFRQAPGKEREFVAGITWVGASTLYADFAKGRFTISRDNAKNTVYLQMNSLKPEDTAVYSCAAGRGIVAGRIPAEYADWGQGTQVTVSSGGGGSGGGGSGGGGSGGGGGSQAVVIQESALTTPPGETVTLTCGSSTGAVTASNYANWVQEKPDHLFTGLIGGHNNRPPGVPARFSGSLIGDKAALTIAGTQTEDEAIYFCALWYSDHWVIGGGTRLTVLGQPKANPTVTLFPPSSEELQANKATLVCLISDFYPGAVTVAWKADGSPVKAGVETTKPSKQSNNKYAASSYLSLTPEQWKSHRSYSCQVTHEGSTVEKTVAPTECS
heavy: DVQLQESGGGLVQAGGSLRLSCTGSGRTFRNYPMAWFRQAPGKEREFVAGITWVGASTLYADFAKGRFTISRDNAKNTVYLQMNSLKPEDTAVYSCAAGRGIVAGRIPAEYADWGQGTQVTVSSGGGGSGGGGSGGGGSGGGGGSHVKLQESGPGLVQPSQSLSLTCTVSGFSLTDYGVHWVRQSPGKGLEWLGVIWSGGGTAYNTALISRLNIYRDNSKNQVFLEMNSLQAEDTAMYYCARRGSYPYNYFDAWGRGTTVTVSSASTKGPSVFPLAPSSKSTSGGTAALGCLVKDYFPEPVTVSWNSGALTSGVHTFPAVLQSSGLYSLSSVVTVPSSSLGTQTYICNVNHKPSNTKVDKKVEPKSCG
notes: No tetramerization domain; also called YM00005; molecule 4
As for B2, the results for the koff in experiment [4] and in experiment [6] were below 1e-07 s⁻¹ and 0.00112 s⁻¹, respectively. In experiment [5], the EC50 is 0.32 nM. Also, the Kd is 25.1 nM in experiment [6] and below 0.309 pM in experiment [7]. The results for the association rate constant (kon) in experiment [6] and in experiment [8] were 44700 M⁻¹ s⁻¹ and 324000 M⁻¹ s⁻¹, respectively.
